In patent US20170298096A1 (CANIMGUIDE THERAPEUTICS, published 2017):
No end group written: not given here.

T1: His-tagged P3028 (human, not fully specified)
T1 construct: the tag is put first after 'PGE73=His-tag-P3028'; also called PGE73; not shown: His-tag
T1 peptide: {His‑tag}-VFDEFKPLVEEPQNLIK


Biological target: T1, His-tagged P3028
Assay: chip ELISA

| Binder | ELISA signal |
| --- | --- |
| KKLDTFFVKLSLFTTR [P28R E15T] | 152 |
| KKLDTFFVKLSLFTVR [P28R E15V] | 163 |
| KKLDTFFVKLSLFTWR [P28R E15W] | 226 |
| KKLDTFFVKLSLFTYR [P28R E15Y] | 340 |
| KKLDTAFVKLSLFTER [P28R F6A] | 575 |
| KKLDTDFVKLSLFTER [P28R F6D] | 193 |
| KKLDTEFVKLSLFTER [P28R F6E] | 229 |
| KKLDTHFVKLSLFTER [P28R F6H] | 332 |
| KKLDTIFVKLSLFTER [P28R F6I] | 466 |
| KKLDTKFVKLSLFTER [P28R F6K] | 309 |
| KKLDTLFVKLSLFTER [P28R F6L] | 408 |
| KKLDTMFVKLSLFTER [P28R F6M] | 467 |
| KKLDTNFVKLSLFTER [P28R F6N] | 446 |
| KKLDTQFVKLSLFTER [P28R F6Q] | 410 |
| KKLDTRFVKLSLFTER [P28R F6R] | 309 |
| KKLDTSFVKLSLFTER [P28R F6S] | 432 |
| KKLDTTFVKLSLFTER [P28R F6T] | 481 |
| KKLDTVFVKLSLFTER [P28R F6V] | 547 |
| KKLDTWFVKLSLFTER [P28R F6W] | 348 |
| KKLDTYFVKLSLFTER [P28R F6Y] | 364 |
| KKLDTFAVKLSLFTER [P28R F7A] | 426 |
| KKLDTFDVKLSLFTER [P28R F7D] | 301 |
| KKLDTFEVKLSLFTER [P28R F7E] | 381 |
| KKLDTFHVKLSLFTER [P28R F7H] | 364 |

| Binder | ELISA signal |
| --- | --- |
| KKLDTFIVKLSLFTER [P28R F7I] | 446 |
| KKLDTFKVKLSLFTER [P28R F7K] | 232 |
| KKLDTFLVKLSLFTER [P28R F7L] | 517 |
| KKLDTFMVKLSLFTER [P28R F7M] | 712 |
| KKLDTFNVKLSLFTER [P28R F7N] | 348 |
| KKLDTFQVKLSLFTER [P28R F7Q] | 511 |
| KKLDTFRVKLSLFTER [P28R F7R] | 369 |
| KKLDTFSVKLSLFTER [P28R F7S] | 700 |
| KKLDTFTVKLSLFTER [P28R F7T] | 517 |
| KKLDTFVVKLSLFTER [P28R F7V] | 527 |
| KKLDTFWVKLSLFTER [P28R F7W] | 380 |
| KKLDTFYVKLSLFTER [P28R F7Y] | 334 |
| KKLDTFFVKLSLATER [P28R F13A] | 525 |
| KKLDTFFVKLSLDTER [P28R F13D] | 112 |
| KKLDTFFVKLSLETER [P28R F13E] | 98 |
| KKLDTFFVKLSLHTER [P28R F13H] | 1050 |
| KKLDTFFVKLSLITER [P28R F13I] | 468 |
| KKLDTFFVKLSLKTER [P28R F13K] | 220 |
| KKLDTFFVKLSLLTER [P28R F13L] | 448 |
| KKLDTFFVKLSLMTER [P28R F13M] | 1190 |
| KKLDTFFVKLSLNTER [P28R F13N] | 862 |
| KKLDTFFVKLSLQTER [P28R F13Q] | 1140 |
| KKLDTFFVKLSLRTER [P28R F13R] | 502 |
| KKLDTFFVKLSLSTER [P28R F13S] | 635 |

| Binder | ELISA signal |
| --- | --- |
| KKLDTFFVKLSLTTER [P28R F13T] | 494 |
| KKLDTFFVKLSLVTER [P28R F13V] | 446 |
| KKLDTFFVKLSLWTER [P28R F13W] | 430 |
| KKLDTFFVKLSLYTER [P28R F13Y] | 291 |
| AKLDTFFVKLSLFTER [P28R K1A] | 466 |
| DKLDTFFVKLSLFTER [P28R K1D] | 373 |
| EKLDTFFVKLSLFTER [P28R K1E] | 396 |
| FKLDTFFVKLSLFTER [P28R K1F] | 332 |
| HKLDTFFVKLSLFTER [P28R K1H] | 428 |
| IKLDTFFVKLSLFTER [P28R K1I] | 483 |
| LKLDTFFVKLSLFTER [P28R K1L] | 449 |
| MKLDTFFVKLSLFTER [P28R K1M] | 457 |
| NKLDTFFVKLSLFTER [P28R K1N] | 445 |
| QKLDTFFVKLSLFTER [P28R K1Q] | 455 |
| RKLDTFFVKLSLFTER [P28R K1R] | 523 |
| SKLDTFFVKLSLFTER [P28R K1S] | 344 |
| TKLDTFFVKLSLFTER [P28R K1T] | 493 |
| VKLDTFFVKLSLFTER [P28R K1V] | 442 |
| WKLDTFFVKLSLFTER [P28R K1W] | 284 |
| YKLDTFFVKLSLFTER [P28R K1Y] | 315 |
| KALDTFFVKLSLFTER [P28R K2A] | 309 |
| KDLDTFFVKLSLFTER [P28R K2D] | 335 |
| KELDTFFVKLSLFTER [P28R K2E] | 349 |
